What was measured:
H2A/H2B dimer = H2A/H2B dimer (UniProt P06897;P02281); assay: ITC
H3/H4 tetramer = H3/H4 tetramer (UniProt P84233;P62799); assay: ITC

B1: AtFKBP53 NTD (residues 1–112) (domain or fragment)
chain: MGFWGLEVKPGKPQAYNPKNEQGKIHVTQATLGTGLSKEKSVIQCSIGDKAPIALCSLLPNKIECCPLNLEFDDDDEPVEFTVTGDRSIHLSGFLEYYQDDEDDYEHDEDDS
stoichiometry N (H2A/H2B dimer): 1
stoichiometry N (H3/H4 tetramer): 1
